Experimental data as given in patent publication US20200239579A1 (Genmab, published 2020).

T1: human PD-L2 (full length, on CHO cells) (human, UniProt Q9BQ51 20-273)
T1 construct: whole, on cells; also called CHO-PD-L2 cells
T1 sequence (looked up): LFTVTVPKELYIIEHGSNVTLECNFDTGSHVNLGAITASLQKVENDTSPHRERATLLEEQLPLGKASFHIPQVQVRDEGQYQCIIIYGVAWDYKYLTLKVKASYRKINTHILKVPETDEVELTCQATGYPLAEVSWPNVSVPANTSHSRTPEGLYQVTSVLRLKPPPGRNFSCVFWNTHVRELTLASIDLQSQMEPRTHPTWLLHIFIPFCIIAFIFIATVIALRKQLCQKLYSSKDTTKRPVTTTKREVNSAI

B1: IgG1-632-FEAR (antibody, V domains shown)
VH: QVQLVESGGGLVKPGGSLRLSCAASGFTFSDYYMSWIRQAPGKGLEWVSYIGSSSNTIYYADSVKGRFTISRDNAKNSLYLQMNSLRAEDTAVYSCARDRVKYGSPGSLFDYWGQGTLVTVSS
VL: SYELTQPPSVSVSPGQTARITCSGDALPKKYAFWYQQKSGQAPVLVIYEDSKRPSGIPERFSGSSSGTMATLTISGAQVEDEADYYCYSTASSGDHRVFGGGTKLTVL
B2: IgG1-476-N101Q-LC33S-FEAR (antibody, V domains shown)
VH: EVQMLESGGGLVQPGGSLRLSCAASGFTFRSYAMSWVRQAPGKGLEWVSGIGDSGGSTYHADSVKGRFTISRDNSKNTLYLQMNSLRAEDTAVYYCAKLGQSSGWYDHYYYYGMDVWGQGTTVTVSS
VL: SYELTQPPSVSVSPGQTASITCSGDKLGNKYVSWFQQKPGQSPVLVIYRDSERPSGIPERFSGSNSGNTATLTISGTQAVDEADFYCQAWDSSTVVFGGGTKLTVL
B3: bsIgG1-huCD3-H1L1-FEAL×511-LC33S-FEAR (bispecific antibody)
heavy 1: not shown
VL: not shown
heavy 2: QVQLVQSGSELKKPGASVMVSCKASGYTFTSYVMNWVRQAPGQGLEWMGWINSYTGNPTSAQGFTGRFVFSFDTSVNTAYLQISSLKAEDTAVYYCARGYCTSTSCYLDYWGQGTLVTVSSASTKGPSVFPLAPSSKSTSGGTAALGCLVKDYFPEPVTVSWNSGALTSGVHTFPAVLQSSGLYSLSSVVTVPSSSLGTQTYICNVNHKPSNTKVDKRVEPKSCDKTHTCPPCPAPEFEGGPSVFLFPPKPKDTLMISRTPEVTCVVVAVSHEDPEVKFNWYVDGVEVHNAKTKPREEQYNSTYRVVSVLTVLHQDWLNGKEYKCKVSNKALPAPIEKTISKAKGQPREPQVYTLPPSREEMTKNQVSLTCLVKGFYPSDIAVEWESNGQPENNYKTTPPVLDSDGSFFLYSRLTVDKSRWQQGNVFSCSVMHEALHNHYTQKSLSLSPGK
light: SYELTQPPSVSVSPGHTARITCSGDALPKKYASWFQQKSGQAPVLVIYEDSKRPSGIPERFSGSTSGTMATLTISGAQVEDETDYYCYSADTSGTHRVFGGGTKLTVLGQPKAAPSVTLFPPSSEELQANKATLVCLISDFYPGAVTVAWKADSSPVKAGVETTTPSKQSNNKYAASSYLSLTPEQWKSHRSYSCQVTHEGSTVEKTVAPTECS
B4: IgG1-321-FEAR (antibody, V domains shown)
VH: EVQLVESGGGLVQPGGSLRLSCAASGFTFSSYWMSWVRQAPGKGLEWVANIKQDGNEKYYVDSVKGRFTISRDNAKNSLYVQMNSLRAEDTAVYYCARDLYYGSGTYPPFDYWGQGTLVTVSS
VL: DIQMTQSPSTLSASVGDRVTITCRASQSISSWLAWYLQKPGKAPKLLIYKASSLESGVPSRFSGSGSGTEFTLTISSLQPDDFATYYCQQYHSSSYTFGQGTKLEIK
B5: IgG1-421-LC91S-FEAR (antibody, V domains shown)
VH: EVQLVESGGGLVQPGRSLRLSCAASGFTFDDYAMHWVRQGPGKGLEWVSGIRWNSGSMHYADSVKGRFTISRDNAKSSLYLQMNSLRAEDTALYYCARAPWYSGAWHPDYWGQGTLVTVSS
VL: QSALTQPRSVSGSPGQSVTISCTGTSSDVGTYNYVSWYQQHPGKAPKLMIYDVIKRPSGVPDRFSGSKSGNTASLTLSGLQAEDEADYYCSSYAGTYTLLFGGGTKLTVL

Legend:
[1] = target: T2, PDLoneECDHisCtag (human, UniProt Q9NZQ7 19-238); experiment: BLI cross-block, second antibody on PDLoneECDHisCtag held by immobilised 632; bold = blocking
T2 construct: Expressed in HEK-293F cells; theoretical molecular weight 29 kDa; also called recombinant human PD-L1 ECD; human PD-L1 (BLI); not shown: C-terminal His-tag; C-tag
T2 sequence (Q9NZQ7 19-238, form in doubt): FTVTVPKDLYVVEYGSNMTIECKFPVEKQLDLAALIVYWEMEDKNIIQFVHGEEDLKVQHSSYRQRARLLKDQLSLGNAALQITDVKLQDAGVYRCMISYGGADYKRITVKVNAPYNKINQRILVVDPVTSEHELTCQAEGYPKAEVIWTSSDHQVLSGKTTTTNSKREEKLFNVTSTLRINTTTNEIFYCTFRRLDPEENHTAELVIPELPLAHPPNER
Protocol: (§1) Antibody cross-block testing was performed using biolayer interferometry (BLI) on an Octet HTX instrument (ForteBio). Antibodies (20 μg/ml in 10 mM sodium acetate buffer pH 6.0 (ForteBio)) were immobilized on Amine-Reactive 2nd Generation (AR2G) biosensors (ForteBio) according to the instructions of the manufacturer. After a baseline (50 s) in Sample Diluent (ForteBio), biosensors containing immobilized antibodies were loaded for 500 s with PDLoneECDHisCtag (100 nM or 2.7 μg/ml), after which the association response of a second antibody (10 μg/ml) was followed for 500 s. Biosensors were regenerated by using 3 times 5 s alternating exposures to 10 mM glycine pH 2.5 and Sample Diluent. The experiment was repeated with a new set of second antibodies starting from the baseline step. Each biosensor was used 6 times. The experiment was performed at 30° C. using a shaker speed of 1000 rpm. Data was analyzed using Data Analysis Software v9.0.0.12 (ForteBio). The Y-axis was aligned to the association step and Savitzky-Golay filtering was applied. The average buffer response was subtracted from the association response of the second antibody in order to correct for the dissociation of PDLoneECDHisCtag from the immobilized antibody. The corrected association responses were plotted in a matrix format.

[2] = target: T2, PDLoneECDHisCtag; experiment: BLI cross-block, second antibody on PDLoneECDHisCtag held by immobilised 547; plain = non-blocking
Protocol: as §1

[3] = target: T2, PDLoneECDHisCtag; experiment: BLI cross-block, second antibody on PDLoneECDHisCtag held by immobilised 511-LC33S; bold = blocking
Protocol: as §1

[4] = target: T2, PDLoneECDHisCtag; experiment: BLI cross-block, second antibody on PDLoneECDHisCtag held by immobilised 516; plain = non-blocking
Protocol: as §1

[5] = target: T2, PDLoneECDHisCtag; experiment: BLI cross-block, second antibody on PDLoneECDHisCtag held by immobilised 421-LC91S; plain = non-blocking
Protocol: as §1

[6] = target: T2, PDLoneECDHisCtag; experiment: BLI cross-block, second antibody on PDLoneECDHisCtag held by immobilised 476-N101Q-LC33S; bold = blocking
Protocol: as §1

[7] = target: T1, human PD-L2 (full length, on CHO cells); experiment: flow cytometry on CHO cells expressing human PD-L2
Protocol: (§2) Cells (3-5×10⁴ cells/well) were incubated in polystyrene 96-well round-bottom plates (Greiner bio-one, cat. no. 650101) with serial dilutions of antibodies (range 0.0001 to 10 μg/mL in 5-fold dilution steps) in 50 μL PBS/0.1% BSA/0.02% azide (staining buffer) at 4° C. for 30 min.
(§3) After washing twice in staining buffer, cells were incubated in 50 μL secondary antibody at 4° C. for 30 min. As a secondary antibody, R-Phycoerythrin (PE)-conjugated goat-anti-human IgG F(ab′)₂ (Cat. no. 109-116-098, Jackson ImmunoResearch Laboratories, Inc., West Grove, Pa.) diluted 1:500 in staining buffer, was used for all experiments. Next, cells were washed twice in staining buffer, re-suspended in 20 μL staining buffer and analyzed on an iQue screener (Intellicyt Corporation, USA). Binding curves were analyzed using non-linear regression (sigmoidal dose-response with variable slope) using GraphPad Prism V75.04 software (GraphPad Software, San Diego, Calif., USA).
A PE-conjugated PD-L2 specific antibody (Mylteni, clone MIH18; cat. no. 130-098-651) was used as positive control.

[8] = target: T3, human PD-L1 (full length, on cells) (human, UniProt Q9NZQ7 19-290); experiment: flow cytometry on MDA-MB-231 cells, PE anti-human IgG secondary, MFI (PE)
T3 construct: The entry holds the signal peptide; also called CD274; B7H1
T3 sequence (Q9NZQ7 19-290 limits assumed): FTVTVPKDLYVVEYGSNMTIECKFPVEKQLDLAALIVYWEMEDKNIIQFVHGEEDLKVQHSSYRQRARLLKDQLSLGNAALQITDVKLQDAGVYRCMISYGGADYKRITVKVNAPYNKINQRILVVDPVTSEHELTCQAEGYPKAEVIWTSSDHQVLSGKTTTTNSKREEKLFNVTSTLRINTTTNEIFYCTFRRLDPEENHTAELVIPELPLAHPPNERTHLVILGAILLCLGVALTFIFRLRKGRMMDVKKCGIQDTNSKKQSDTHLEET
Protocol: as §2, §3

[9] = target: T4, cynomolgus monkey PD-L1 (full length, on CHO cells) (cynomolgus monkey (Macaca fascicularis), UniProt G7PSE7 19-290); experiment: flow cytometry on CHO cells transfected with cynomolgus PD-L1, PE anti-human IgG secondary, MFI (PE)
T4 construct: whole, on cells; also called PDL1 Mf; cynomolgus PD-L1
T4 sequence (G7PSE7 entry or part of it): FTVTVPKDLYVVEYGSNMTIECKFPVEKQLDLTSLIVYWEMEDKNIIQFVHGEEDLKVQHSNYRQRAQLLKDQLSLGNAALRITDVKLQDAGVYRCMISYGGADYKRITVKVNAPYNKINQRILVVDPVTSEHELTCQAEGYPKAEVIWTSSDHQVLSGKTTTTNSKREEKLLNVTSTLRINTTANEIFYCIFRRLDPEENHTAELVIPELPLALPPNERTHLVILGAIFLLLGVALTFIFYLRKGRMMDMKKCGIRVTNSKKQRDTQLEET
Protocol: as §2, §3
Binding to CHO cells expressing cynomolgus PD-L1 was determined by flow cytometry using a method as described above.

[10] = target: T2, PDLoneECDHisCtag; experiment: BLI cross-block, second antibody on PDLoneECDHisCtag held by immobilised 338; bold = blocking
Protocol: as §1

[11] = target: T2, PDLoneECDHisCtag; experiment: BLI cross-block, second antibody on PDLoneECDHisCtag held by immobilised 547; bold = blocking
Protocol: as §1

[12] = target: T2, PDLoneECDHisCtag; experiment: BLI cross-block, second antibody on PDLoneECDHisCtag held by immobilised 321; bold = blocking
Protocol: as §1

[13] = target: T2, PDLoneECDHisCtag; experiment: BLI cross-block, second antibody on PDLoneECDHisCtag held by immobilised MEDI; bold = blocking
Protocol: as §1

[14] = target: T2, PDLoneECDHisCtag; experiment: BLI cross-block, second antibody on PDLoneECDHisCtag held by immobilised MPDL; bold = blocking
Protocol: as §1

[15] = target: T2, PDLoneECDHisCtag; experiment: BLI cross-block, second antibody on PDLoneECDHisCtag held by immobilised 632; plain = non-blocking
Protocol: as §1

[16] = target: T2, PDLoneECDHisCtag; experiment: BLI cross-block, second antibody on PDLoneECDHisCtag held by immobilised 421-LC91S; bold = blocking
Protocol: as §1

[17] = target: T2, PDLoneECDHisCtag; experiment: BLI cross-block, second antibody on PDLoneECDHisCtag held by immobilised 516; bold = blocking
Protocol: as §1

[18] = target: T2, PDLoneECDHisCtag; experiment: BLI cross-block, second antibody on PDLoneECDHisCtag held by immobilised 511-LC33S; plain = non-blocking
Protocol: as §1

[19] = target: T2, PDLoneECDHisCtag; experiment: BLI cross-block, second antibody on PDLoneECDHisCtag held by immobilised 476-N101Q-LC33S; plain = non-blocking
Protocol: as §1

Binder	association response of the second antibody [1]	association response of the second antibody [2]	association response of the second antibody [3]	association response of the second antibody [4]	association response of the second antibody [5]	association response of the second antibody [6]	binding result [7]	binding result [8]	EC50 (read off the curve) [9]	association response of the second antibody [10]	association response of the second antibody [11]	association response of the second antibody [12]	association response of the second antibody [13]	association response of the second antibody [14]	association response of the second antibody [15]	association response of the second antibody [16]	association response of the second antibody [17]	association response of the second antibody [18]	association response of the second antibody [19]
B1	0 nm	0.7 nm	0 nm	1.1 nm	0.2 nm	0 nm													
B2	0 nm	0.8 nm	0 nm	1.2 nm	0.4 nm	0 nm													
B3							no binding	binds	~0.3 µg/mL										
B4			0 nm	1.1 nm						0 nm	0 nm	0 nm	0 nm	0 nm	0.6 nm	-0.1 nm			
B5										0 nm	0 nm	0 nm	0 nm	0 nm	0.6 nm	0 nm	-0.1 nm	0.6 nm	0.8 nm
